Results on 4 molecules are retold here after US11325952B2, “Light-gated signaling modulation” (Korea University Research and Business Foundation, priority 2016, dated 2022).

In test [1] the test system is hippocampal culture neurons. The test can be described thus: Cal-Light test in dissociated hippocampal culture neurons (EGFP reporter). It counts as cell-based, rat.
A further test relates to cortical slice culture. Put plainly: Cal-Light test in cortical slice culture (EGFP reporter). It is filed as cell-based. The note with it: further increase of neuronal activity by bicuculine application. The source says:
FIG. 18. Cal-Light test in cortical slice culture. AAV expressing Cal-Light constructs and EGFP reporter were infected to cortical slice culture at DIV3 (Days in vitro). […] Examples of action potentials were plotted at the top left panel. Electrical stimulation reliably triggered action potentials measured in layer 2/3 pyramidal neurons. Two days later, slices were fixed and images were taken by confocal microscopy. […] Blue light or high frequency stimuli alone was not able to increase the level of EGFP expression.
[…] Cortical slice culture were made at postnatal day 3 and AAV expressing Cal-Light constructs including an EGFP reporter were infected to slices at DIV 3 (Days in vitro). After 12 days of expression, a bipolar stimulation electrode was placed in layer 2/3. […] This stimulation protocol was repeated 30 times, resulting in triggering about 300 action potentials in total. Two days later, slices were fixed and gene expression pattern was imaged by confocal microscopy.

For test [2], the system named is HEK293T cells. Put plainly: SEAP chemiluminescent assay of BLITz constructs, light-induced gene expression. It counts as cell-based. Particulars: for light-induced gene expression: blue light; for background (baseline) gene expression level: dark state. The procedure: HEK293T cells were grown in high glucose Dulbecco's Modified Eagle Medium (DMEM) (Gibco, CA, USA) containing 10% fetal bovine serum (Cat #10438-018, Gibco) and 1% penicillin-streptomycin (Invitrogen, NY, USA). Cells were incubated at 37° C. and under 10% CO2 conditions. For the experiment, all dishes and coverslip were pre-coated with a 1 mg/ml Poly-D-Lysine hydrobromide (Cat #P0899, Sigma-Aldrich, St. Louis, Mo., USA) solution for 2 hrs. After 0.25% trypsin (Cat #25200, Gibco) treatment for 2 min, detached cells were collected and the total cell numbers were counted. Dissociated cells were plated at 2×10^5 cells per 12 mm coverslip. 24 hrs later, DNA plasmid vectors were transfected using the calcium phosphate transfection kit (Clontech, CA, USA). The mixture of the DNA solution was slowly added into 2× Hepes Buffered Saline. After 1 hr incubation, precipitated solutions were added into each well.
Blue light was illuminated by 465 nm wavelength blue LED array (LED wholesalers, Hayward, Calif., USA) that was controlled by a high-accuracy digital electronic timer (Model 451, GraLab, Centerville, Ohio, USA). The LED array was installed inside the 37° C. and 10% CO2 incubator. One transparent blank plate with 2 cm height was inserted between the LED source and the sample to inhibit potential undesirable heating caused by the direct contact of the LED. In the experimental setup, the power of blue light at the specimen was 1.7 mW, measured by a power meter (PM100D, ThorLabs, Newton, N.J., USA). To make a dark condition, all lights were prevented by wrapping culture plates with an aluminum foil, and all experimental procedures were carried out under dim red light.
For the quantification of gene-expression levels, a secreted embryonic alkaline phosphatase (SEAP) chemiluminescent assay was used. All reagents for the SEAP assay were purchased from InvivoGen (San Diego, Calif., USA). 40 μl of sample was collected from the medium of each well and transferred into 96-wells plate. Samples were pre-heated in a 60° C. incubator for 10 m to inhibit the activity of endogenous alkaline phosphatase. All mixtures were added into a single master tube including SEAP substrates and L-homoarginine. The mixed solutions were carefully added into each sample onto 96-wells plate without bubbles. The chemiluminescence of each sample was measured by a micro-plate reader (SpectraMax Plus 384, Molecular Devices, Sunnyvale, Calif., USA) at 37° C. at 405 nm. Assays were made at every 30 s for 2 hrs. All data and the calculation of Vmax were acquired by a SoftMax Pro 5.4.1 (Molecular Devices).
Thus, to prevent access by TEV protease in the dark state, but to allow complete access upon blue light illumination, the C-terminal region of the Jα-helix on AsLOV2 with the TEVseq was modified (FIG. 1a, b). […]

For test [3], the system named is HEK293T cells. The test can be described thus: EGFP expression reporter assay of BLITz constructs. It is filed as cell-based. Particulars: dark vs blue light. The text has this: FIG. 1: Development of BLITz system. (a) Schematic drawing of BLITz proteins and simple diagram of light-induced gene expression. The major protein body, TM-CIBN-TEV-N-AsLOV2-TEVseq-TetR-VP16 (tTA), is targeted to a membrane with a transmembrane domain (TM). CRY2PHR-TEV-C is localized in the cytosol. Blue light causes interaction of CRY2PHR with CIBN, and TEV-C and TEV-N subsequently interact with each other. At the same time, TEVseq is unmasked due to conformational changes of AsLOV2 Jα-helix. When these two light-dependent processes are satisfied, TEVseq cleaves TetR-VP16, which translocates to the nucleus and causes targeted gene expression. (b) Design of TEVseq insertion into Jα-helix. […]
HEK293T cells were grown in high glucose Dulbecco's Modified Eagle Medium (DMEM) (Gibco, CA, USA) containing 10% fetal bovine serum (Cat #10438-018, Gibco) and 1% penicillin-streptomycin (Invitrogen, NY, USA). […] After 0.25% trypsin (Cat #25200, Gibco) treatment for 2 min, detached cells were collected and the total cell numbers were counted. […]
Blue light was illuminated by 465 nm wavelength blue LED array (LED wholesalers, Hayward, Calif., USA) that was controlled by a high-accuracy digital electronic timer (Model 451, GraLab, Centerville, Ohio, USA). […] In the experimental setup, the power of blue light at the specimen was 1.7 mW, measured by a power meter (PM100D, ThorLabs, Newton, N.J., USA). […]
In general terms: In a reporter assay the amount or activity of a reporter protein is the signal.

On to `NC1=N[C@H](O)[C@H]2[C@H]3O[C@]4(O)O[C@@H]([C@@H](O)[C@@]2(N1)[C@@H]4O)[C@]3(O)CO` [TTX, tetrodotoxin], for which, in test [1], the “reporter EGFP gene expression level” value is listed as “kept low”.
Regarding `CN1CCc2cc3c(cc2[C@H]1[C@@H]1OC(=O)c2c1ccc1c2OCO1)OCO3` [bicuculine], the EGFP expression result in the test with cortical slice culture was “significant increase”.

B1: BLITz-1: AsLOV2 Jα-helix C-terminal deletion variant with inserted TEV cleavage sequence, in TM-CIBN-TEV-N-AsLOV2-TEVseq-tTA fusion protein (protein)
chain: EFLATTLERIEKNFVITDPRLPDNPIIFASDSFLQLTEYSREEILGRNCRFLQGPETDRATVRKIRDAIDNQTEVTVQLINYTKSGKKFWNVFHLQPMRDYKGDVQYFIGVQLDGTERLHGAAEREAVCLIKKTAFQIA
modifications: BLITz-1 AsLOV2 (1-139 A.A.)
On to B1, for which, in the test with HEK293T cells [2], the light-induced gene expression entry is “high” and the “background (baseline) gene expression level” value is listed as “completely abolished”. The EGFP signals entry in the test on HEK293T cells [3] was “detected only when blue light was illuminated”.

B2: BLITz-6: AsLOV2 Jα-helix C-terminal deletion variant with TEVseq; selected for the neuromodulation mapping system (protein)
chain: EFLATTLERIEKNFVITDPRLPDNPIIFASDSFLQLTEYSREEILGRNCRFLQGPETDRATVRKIRDAIDNQTEVTVQLINYTKSGKKFWNVFHLQPMRDYKGDVQYFIGVQLDGTERLHGAAEREAVCLIKKTAFQI
modifications: BLITz-6 AsLOV2 (1-138 A.A.)
For B2, in the test on HEK293T cells [2], the light-induced gene expression entry is given as “high” and the “background (baseline) gene expression level” value was “completely abolished”. Further, the EGFP signals entry in the test with HEK293T cells [3] is listed as “detected only when blue light was illuminated”.
